Results reported in US20210047432A1 (DIACCURATE, published 2021).
Numbering of substitutions follows the chain as printed.

B1: humanized antibody #2A (antibody, V domains shown)
VH: QVQLVQSGAEVKKPGASVKVSCKASGYTFTNYWIHWVRRAPGQGLEWIGNIDPSDTRTHYNQKFKDRATLTVDKSTSTAYMELSSLRSEDTAVYYCARQTLYYEALDYWGQGTLVTVSS
VL: EIVMTQSPATLSVSPGERATLSCKASQDVSTAVAWYQEKPGQAPRLLIYWASTRHTGIPARFSGSRSGTEYTLTISSLQSEDFAVYYCQQDYSTPPTFGGGTKVEIK
notes: CDR-grafted 14G9; version A keeps Arg H39 and Glu L38; also called Ab #2A
B2: human FcγRIIA (H131) (receptor, UniProt P12318 34-317, looked up)
chain: QAAAPPKAVLKLEPPWINVLQEDSVTLTCQGARSPESDSIQWFHNGNLIPTHTQPSYRFKANNNDSGEYTCQTGQTSLSDPVHLTVLSEWLVLQTPHLEFQEGETIMLRCHSWKDKPLVKVTFFQNGKSQKFSHLDPTFSIPQANHSHSGDYHCTGNIGYTLFSSKPVTITVQVPSMGSSSPMGIIVAVVIATAVAAIVAAVVALIYCRKKRISANSTDPVKAAQFEPPGRQMIAIRKRQLEETNNDYETADGGYMTLNPRAPTDDDKNIYLTLPPNDHVNSNN
notes: whole, on cells; Allelic variant with His at 131 (mature numbering as printed)
B3: human FcγRIIA(R131) (receptor, UniProt P12318 34-317, looked up)
chain: B2 chain with H134R
notes: whole, on cells; Allelic variant with Arg at 131 (so in the source)
B4: human FcγRIIIB(NA1) (receptor, UniProt O75015 17-200, looked up)
chain: GMRTEDLPKAVVFLEPQWYRVLEKDSVTLKCQGAYSPEDNSTQWFHNENLISSQASSYFIDAATVDDSGEYRCQTNLSTLSDPVQLEVHVGWLLLQAPRWVFKEEDPIHLRCHSWKNTALHKVTYLQNGKDRKYFHHNSDFHIPKATLKDSGSYFCRGLVGSKNVSSETVNITITQGLAVSTIS
notes: whole, on cells
B5: human FcγRIIIB(NA2) (receptor, UniProt O75015 17-200, looked up)
chain: B4 chain with R20S, N49S, D66N, V90I
notes: whole, on cells
B6: human FcγRIIIB(SH) (receptor, UniProt O75015 17-200, looked up)
chain: B4 chain with R20S, N49S, A62D, D66N, V90I
notes: whole, on cells

Assays:
[1] = molecular target: T1, recombinant human pro-sPLA2-GIB (human, UniProt P04054 16-148); assay: competitive ELISA: constant antibody premixed with dilutions of soluble antigen, free antibody caught on antigen-coated plate
T1 construct: also called pro-sPLA2-IB; proPLA2-GIB
Description: (§1) Binding affinities of the humanized antibodies to pro-sPLA2-GIB and sPLA2-GIB were measured by plate-based competition immunoassay. For the competition ELISA, briefly, constant amounts of antibody at different levels were premixed with serial dilutions of antigen protein, human sPLA2-GIB or pro-sPLA2-GIB, ranging from 0 to 10 μg/ml, and incubated for two hours at room temperature to reach pseudo-binding equilibrium between the antibody and antigen. These solutions were then transferred to 96-well sPLA2-GIB or pro-sPLA2-GIB pre-coated plates to allow the free-antibody in the mixtures to bind to plate-coated sPLA2-GIB or pro-sPLA2-GIB. The plates were typically coated with 30 to 100 ng of human sPLA2-GIB or pro-sPLA2-GIB protein in PBS solution overnight at 4° C. followed by BSA nonspecific blocking. After washing off excess antibody in solution, plate-bound antibodies were detected with an HRP-conjugated goat anti-mouse IgG or IgA polyclonal antibody reagent and developed using colorimetric substrate. The dependency of the signals on the concentrations of antigen in solution was analyzed with a 4-parameter fit analysis using Prism™ software (Graph Pad) and reported as IC50.
(§2) The respective binding affinities of the humanized antibodies to human pro-sPLA2-GIB and human sPLA2-GIB were measured by plate-based competition immunoassay. Briefly, constant amounts of antibody at different levels were premixed with serial dilutions of antigen proteins to reach pseudo-binding equilibrium between the antibody and antigen. These solutions were then transferred to antigen pre-coated plates to allow the free-antibody in the mixtures to bind to plate-coated sPLA2-GIB or pro-sPLA2-GIB. Plate-bound antibodies were detected with an HRP-conjugated polyclonal antibody. Data were fitted with a 4PL logistic non-linear regression model and the relative IC50 values were estimated from the model (Table 4).

[2] = molecular target: T2, recombinant human sPLA2-GIB (mature secreted group IB pancreatic phospholipase A2) (human, UniProt P04054 23-148); assay: as above
T2 construct: also called sPLA2-IB; PLA2-GIB mature form
Description: as §1, §2

[3] = molecular target: immune complex of #2B2 with sPLA2-GIB (human, UniProt P04054 23-148); assay: flow cytometry, antibody-antigen immune complex on CHO cells expressing the receptor
Description: Antibody-antigen immune complex were generated by co-incubation of 10 µg/ml of humanized antibodies and 5 μg/ml of sPLA2-GIB for 30 min at 37° C. Immune complexes were then incubated with 1×10⁵ CHO cells stably expressing human FcγRs for 30 min on ice. The cells were then washed, detached, fixed, and analyzed by flow cytometry (FACSCalibur; BD Biosciences).
The binding of monomeric #2B, #2B1 and #2B2 to human FcγRs was tested by flow cytometry by incubating the mAbs with CHO cells stably expressing human FcγRI, FcγRIIA (H131), FcγRIIA(R131), FcγRIIB, FcγRIIIA(F176), FcγRIIIA(V176), FcγRIIIB(NA1), FcγRIIIB(NA2), and FcγRIIIB(SH), (REF P. Bruhns). As presented in FIG. 9, #2B is binding to hFcγRI and hFcγRIIIA(V176) only, whereas no monomeric binding of #2B1 and #2B2 to all tested hFcγRs was observed. Antibody-antigen immune complex was tested by first incubating the mAb with the antigen and then, incubating the immune complexes formed with CHO cells stably expressing human FcγRs. The immune complexe of #2B is binding to all tested hFcγRs, except hFcγRIIB (FIG. 10). Weak binding is observed for immune complex of #2B1 to hFcγRIIIA(V176) (data not shown), whereas no immune complex binding of #2B2 to any tested hFcγRs (data not shown).

immune complex of #2B2 with sPLA2-GIB, sequence (P04054 23-148, one chain of several): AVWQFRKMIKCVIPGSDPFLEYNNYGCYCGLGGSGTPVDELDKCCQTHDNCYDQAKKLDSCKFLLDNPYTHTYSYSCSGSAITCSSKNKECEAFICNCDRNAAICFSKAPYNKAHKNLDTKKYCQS
T2 sequence (P04054 23-148): as the sequence (P04054 23-148, one chain of several) above
T1 sequence (P04054 16-148): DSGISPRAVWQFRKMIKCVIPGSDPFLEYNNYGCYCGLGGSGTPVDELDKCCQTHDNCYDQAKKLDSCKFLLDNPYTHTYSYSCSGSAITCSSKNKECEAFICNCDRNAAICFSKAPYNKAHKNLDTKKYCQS

Binder	IC50 [1]	IC50 [2]	binding result [3]
B1	216 nM	1.9 nM	–
B2	–	–	no binding
B3	–	–	no binding
B4	–	–	no binding
B5	–	–	no binding
B6	–	–	no binding
